Biological target: the molecule itself
Assay: SEC

B1: Elk-1 (recombinant, full length) (natural protein, UniProt P19419 1-428, looked up)
chain: MDPSVTLWQFLLQLLREQGNGHIISWTSRDGGEFKLVDAEEVARLWGLRKNKTNMNYDKLSRALRYYYDKNIIRKVSGQKFVYKFVSYPEVAGCSTEDCPPQPEVSVTSTMPNVAPAAIHAAPGDTVSGKPGTPKGAGMAGPGGLARSSRNEYMRSGLYSTFTIQSLQPQPPPHPRPAVVLPSAAPAGAAAPPSGSRSTSPSPLEACLEAEEAGLPLQVILTPPEAPNLKSEELNVEPGLGRALPPEVKVEGPKEELEVAGERGFVPETTKAEPEVPPQEGVPARLPAVVMDTAGQAGGHAASSPEISQPQKGRKPRDLELPLSPSLLGGPGPERTPGSGSGSGLQAPGPALTPSLLPTHTLTPVLLTPSSLPPSIHFWSTLSPIAPRSPAKLSFQFPSSGSAQVHIPSISVDGLSTPVVLSPGPQKP
stoichiometry N: 2

— PMC3159454 (Nucleic Acids Research, 2011)
